Reference: patent US11191823 (CHILDREN S MEDICAL CENTER, dated 2021)
Where “and” joins values, the source holds several entries; their conditions need not be identical. Equal entries are not always repeated.

Experiments:
[1] = biological target: T1, JUNV GP1 (residues 87-235), biotinylated (Junin virus (JUNV), UniProt P26313 87-235); assay: ELISA, plates coated with biotinylated antigen, IgG titrated
[2] = biological target: T1, JUNV GP1 (residues 87-235), biotinylated; assay: SPR, Fab over immobilized JUNV GP1
[3] = biological target: T1, JUNV GP1 (residues 87-235), biotinylated
[4] = biological target: T1, JUNV GP1 (residues 87-235), biotinylated; assay: ELISA, plates coated with antigen, IgG titrated

Row | Binder | EC50 (read off the curve) [1] [µg/mL] | Kd [2] [nM] | further results
1 | CR1-07 IgG (antibody, V domains shown) VH: QVQLVESGGGVVHPGRSLRLSCAASGFTFGTSIMHWVRQAPGKGMQWVAQISHDESRKFYSDSVKGRFTVSRDNSKNTLFLEMSSLRIEDTAVYYCAKDLSPPYSYAWDIFQYWGQGSLVTVS VL: DIVMTQSPESLAVSLGERATINCKSSQSVLYSSRSDNKDYLAWYQQKPGQSPKLLIYWASTRESGVPERFTGSGSGTDFTLSISSLQAEDVAVYYCQQYYSSPPTFGGGTKVELK | ~0.2 | – | –
2 | CR1-07 Fab (Fab, V domains shown) VH: QVQLVESGGGVVHPGRSLRLSCAASGFTFGTSIMHWVRQAPGKGMQWVAQISHDESRKFYSDSVKGRFTVSRDNSKNTLFLEMSSLRIEDTAVYYCAKDLSPPYSYAWDIFQYWGQGSLVTVS VL: DIVMTQSPESLAVSLGERATINCKSSQSVLYSSRSDNKDYLAWYQQKPGQSPKLLIYWASTRESGVPERFTGSGSGTDFTLSISSLQAEDVAVYYCQQYYSSPPTFGGGTKVELK | – | 86.2 | –
3 | CR1-28 IgG (antibody, V domains shown) VH: QVQLVESGGGVVQPGRSLRLSCAASGFTFSSSAMHWVRQAPGKGLEWVAVIWSDGSNENYADSVKGRFTISRDNSKNTLYLQMSSLRAEDTAVYYCATDKTYVSGYTSTWYYFNYWGQGTLVTVS VL: DIQMTQSPSTLSASVGDRVTITCRASQSIDNWLAWYQQKPGKAPKLLIYTASRLESGVPSRFSGSGSGTEFTLTISSLQPDDFATYYCQHRTFGQGTKVEIK | ~0.1 | – | –
4 | CR1-28 Fab (Fab, V domains shown) VH: QVQLVESGGGVVQPGRSLRLSCAASGFTFSSSAMHWVRQAPGKGLEWVAVIWSDGSNENYADSVKGRFTISRDNSKNTLYLQMSSLRAEDTAVYYCATDKTYVSGYTSTWYYFNYWGQGTLVTVS VL: DIQMTQSPSTLSASVGDRVTITCRASQSIDNWLAWYQQKPGKAPKLLIYTASRLESGVPSRFSGSGSGTEFTLTISSLQPDDFATYYCQHRTFGQGTKVEIK | – | 5.3 | –
5 | GD01 IgG (antibody, V domains shown) VH: EVKLQQSGAELARPGTSVKLSCKASGYTFTNYWMQWIKQRPGQGLEWIGAVYPGDGDTRFSQKFKGKATLTADKSSSTAYMQLSSLSSEDSAVYFCARRRVYYGSNYIYALDYWGQGTSVTVSA VL: DIVMTQSQKFMSTSIGDRVSITCKASQNVGSAVAWYQQKPGQSPKLLIYSASNRYTGVPDRFIGSESGTDFTLTISNMQSEDLADYFCQQYSSYPLAFGAGTKLELK | – | – | IC50 (read off the curve) [3]: ~8 µg/mL and ~7 µg/mL and ~10 µg/mL; EC50 (read off the curve) [4]: ~0.1 µg/mL
